T1: murine G3BP (mouse cyclophilin C-associated protein), native protein of mouse serum (mouse, UniProt Q07797 19-577)
T1 construct: also called G3BP murine protein homolog; CyCAP
T1 sequence: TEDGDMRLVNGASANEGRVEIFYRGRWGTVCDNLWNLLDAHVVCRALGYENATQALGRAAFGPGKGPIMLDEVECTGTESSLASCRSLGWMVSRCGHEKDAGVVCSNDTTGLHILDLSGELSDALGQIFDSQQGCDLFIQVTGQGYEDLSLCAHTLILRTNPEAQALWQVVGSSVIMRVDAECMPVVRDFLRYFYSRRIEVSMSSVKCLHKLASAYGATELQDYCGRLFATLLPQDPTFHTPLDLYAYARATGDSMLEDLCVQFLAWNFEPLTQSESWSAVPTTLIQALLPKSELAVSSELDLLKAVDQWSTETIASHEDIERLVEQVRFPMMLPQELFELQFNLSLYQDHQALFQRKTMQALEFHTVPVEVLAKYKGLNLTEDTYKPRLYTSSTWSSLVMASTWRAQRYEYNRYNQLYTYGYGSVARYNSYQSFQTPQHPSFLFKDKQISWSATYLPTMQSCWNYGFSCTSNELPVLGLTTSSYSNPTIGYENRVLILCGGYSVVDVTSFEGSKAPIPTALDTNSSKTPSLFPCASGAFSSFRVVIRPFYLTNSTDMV

T2: human C-reactive protein (CRP), native protein of human serum (human, UniProt P02741 19-224)
T2 construct: mature; also called human CRP; human homolog of CRP
T2 sequence: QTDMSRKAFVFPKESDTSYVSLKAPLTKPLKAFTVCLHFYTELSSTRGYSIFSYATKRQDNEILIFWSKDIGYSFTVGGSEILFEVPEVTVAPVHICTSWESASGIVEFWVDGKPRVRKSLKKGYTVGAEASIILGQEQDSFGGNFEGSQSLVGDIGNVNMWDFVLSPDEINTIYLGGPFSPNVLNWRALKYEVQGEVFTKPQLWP

B1: rAAV-6 (recombinant adeno-associated virus vector with AAV-6 capsid) (other)
chain: MAADGYLPDWLEDNLSEGIREWWDLKPGAPKPKANQQKQDDGRGLVLPGYKYLGPFNGLDKGEPVNAADAAALEHDKAYDQQLKAGDNPYLRYNHADAEFQERLQEDTSFGGNLGRAVFQAKKRVLEPFGLVEEGAKTAPGKKRPVEQSPQEPDSSSGIGKTGQQPAKKRLNFGQTGDSESVPDPQPLGEPPATPAAVGPTTMASGGGAPMADNNEGADGVGNASGNWHCDSTWLGDRVITTSTRTWALPTYNNHLYKQISSASTGASNDNHYFGYSTPWGYFDFNRFHCHFSPRDWQRLINNNWGFRPKRLNFKLFNIQVKEVTTNDGVTTIANNLTSTVQVFSDSEYQLPYVLGSAHQGCLPPFPADVFMIPQYGYLTLNNGSQAVGRSSFYCLEYFPSQMLRTGNNFTFSYTFEDVPFHSSYAHSQSLDRLMNPLIDQYLYYLNRTQNQSGSAQNKDLLFSRGSPAGMSVQPKNWLPGPCYRQQRVSKTKTDNNNSNFTWTGASKYNLNGRESIINPGTAMASHKDDKDKFFPMSGVMIFGKESAGASNTALDNVMITDEEEIKATNPVATERFGTVAVNLQSSSTDPATGDVHVMGALPGMVWQDRDVYLQGPIWAKIPHTDGHFHPSPLMGGFGLKHPPPQILIKNTPVPANPPAEFSATKFASFITQYSTGQVSVEIEWELQKENSKRWNPEVQYTSNYAKSANVDFTVDNNGLYTEPRPIGTRYLTRPL
B2: human galectin 3 binding protein (G3BP), native protein of human serum (other)
chain: VNDGDMRLADGGATNQGRVEIFYRGQWGTVCDNLWDLTDASVVCRALGFENATQALGRAAFGQGSGPIMLDEVQCTGTEASLADCKSLGWLKSNCRHERDAGVVCTNETRSTHTLDLSRELSEALGQIFDSQRGCDLSISVNVQGEDALGFCGHTVILTANLEAQALWKEPGSNVTMSVDAECVPMVRDLLRYFYSRRIDITLSSVKCFHKLASAYGARQLQGYCASLFAILLPQDPSFQMPLDLYAYAVATGDALLEKLCLQFLAWNFEALTQAEAWPSVPTDLLQLLLPRSDLAVPSELALLKAVDTWSWGERASHEEVEGLVEKIRFPMMLPEELFELQFNLSLYWSHEALFQKKTLQALEFHTVPFQLLARYKGLNLTEDTYKPRIYTSPTWSAFVTDSSWSARKSQLVYQSRRGPLVKYSSDYFQAPSDYRYYPYQSFQTPQHPSFLFQDKRVSWSLVYLPTIQSCWNYGFSCSSDELPVLGLTKSGGSDRTIAYENKALMLCEGLFVADVTDFEGWKAAIPSALDTNSSKSTSSFPCPAGHFNGFRTVIRPFYLTNSSGVD
notes: also called hu-G3BP; huG3BP

Legend:
[1] = molecular target: T1, murine G3BP (mouse cyclophilin …); assay: AAV6 incubated with seronegative murine serum, ultracentrifugation, 2D gel
[2] = molecular target: B2; assay: surface plasmon resonance imagery, rAAV immobilised on glass prism, hu-G3BP injected
[3] = molecular target: T2, human C-reactive protein (CRP), native …; assay: rAAV-6 immobilised on AVB-Sepharose incubated with human serum; PAGE and Western blot with human CRP specific antibodies
[4] = molecular target: rAAV-2 (recombinant adeno-associated virus vector with AAV-2 capsid) (adeno-associated virus serotype 2, UniProt P03135 1-735); assay: rAAV immobilised on AVB-Sepharose beads incubated with seronegative human serum; Western blot for G3BP
rAAV-2 (recombinant adeno-associated virus vector with AAV-2 capsid), sequence (P03135 whole entry): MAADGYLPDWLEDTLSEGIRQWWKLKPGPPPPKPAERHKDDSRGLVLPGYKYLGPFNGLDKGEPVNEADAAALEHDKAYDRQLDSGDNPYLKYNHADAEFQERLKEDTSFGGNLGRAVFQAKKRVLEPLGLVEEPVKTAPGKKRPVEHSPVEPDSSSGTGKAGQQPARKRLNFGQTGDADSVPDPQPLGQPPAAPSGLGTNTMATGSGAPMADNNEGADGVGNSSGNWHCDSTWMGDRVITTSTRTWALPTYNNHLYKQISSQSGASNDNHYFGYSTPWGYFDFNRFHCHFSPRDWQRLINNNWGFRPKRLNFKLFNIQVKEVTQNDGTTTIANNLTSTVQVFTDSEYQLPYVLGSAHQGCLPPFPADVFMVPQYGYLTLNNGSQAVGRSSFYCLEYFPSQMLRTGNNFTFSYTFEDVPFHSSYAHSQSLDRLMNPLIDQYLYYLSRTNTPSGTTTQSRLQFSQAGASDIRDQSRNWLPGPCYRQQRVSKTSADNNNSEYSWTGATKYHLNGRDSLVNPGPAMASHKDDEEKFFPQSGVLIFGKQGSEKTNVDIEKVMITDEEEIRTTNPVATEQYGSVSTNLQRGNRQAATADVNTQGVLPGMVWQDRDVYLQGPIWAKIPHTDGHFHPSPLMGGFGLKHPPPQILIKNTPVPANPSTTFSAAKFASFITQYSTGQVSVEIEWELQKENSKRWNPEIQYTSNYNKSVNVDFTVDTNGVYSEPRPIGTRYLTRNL

| Binder | binding result [1] | Ka [2] [M⁻¹] | binding result [3] | binding result [4] |
| --- | --- | --- | --- | --- |
| B1 | no binding | ~1e+09 | no binding | – |
| B2 | – | – | – | no binding |

From patent US20130189225A1 (ASSOCIATION INSTITUT DE MYOLOGIE, published 2013)
